Reference: the supplement of paper PMC7125110
± gives the standard error. For part of these data: Variants at the floor of the assay were thinned out.

B1: glmS ribozyme (parent)
chain: AUAAAAGCGCCAGAACUACAGAAAUGUAGUUGACGAGGAGGAGGUUUAUCGAAUUUUCGGCGGAUGCCUCCAAA

How the values were obtained:
Conditions in all cases: with glucosamine-6-phosphate
[1] = variants of: B1; test: kcat; higher = faster cleavage; RNA array
Summary of the method: (§1)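 Weighted Michaelis–Menten fits across concentrations supplied kcat and KM, based on kobs from one- or two-exponential decay fits to normalised per-tile medians. The data came from barcoded ribozyme variants transcribed in situ by E. coli RNA polymerase on sequenced MiSeq chips and tracked at 37 °C by a hybridised Cy3 probe. Glucosamine-6-phosphate (40 μM to 10 mM) in HEPES/KCl/Mg(OAc)2 buffer was flowed in.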

[2] = variants of: B1; test: self-cleavage kobs at 40 uM GlcN6P; higher = faster cleavage; RNA array
Summary of the method: as §1

[3] = variants of: B1; test: self-cleavage kobs at 160 uM GlcN6P; higher = faster cleavage; RNA array
Summary of the method: as §1

[4] = variants of: B1; test: self-cleavage kobs at 640 uM GlcN6P; higher = faster cleavage; RNA array
Summary of the method: as §1

[5] = variants of: B1; test: self-cleavage kobs at 2500 uM GlcN6P; higher = faster cleavage; RNA array
Summary of the method: as §1

[6] = variants of: B1; test: KM; higher = weaker cofactor use; RNA array
Summary of the method: as §1

[7] = variants of: B1; test: self-cleavage kobs at 10000 uM GlcN6P; higher = faster cleavage; RNA array
Summary of the method: as §1

A39U C61U
kcat [1]: < 1e-05 s⁻¹

G37C U47C
kcat [1]: < 1e-05 s⁻¹
self-cleavage kobs at 40 uM GlcN6P [2]: < 1e-05 s⁻¹
self-cleavage kobs at 160 uM GlcN6P [3]: < 1e-05 s⁻¹

G38A C50G
kcat [1]: 3.77e-05 ± 1.1e-05 s⁻¹
self-cleavage kobs at 160 uM GlcN6P [3]: 6.25e-05 ± 1.5e-05 s⁻¹
self-cleavage kobs at 640 uM GlcN6P [4]: 3.79e-05 ± 1.3e-05 s⁻¹
self-cleavage kobs at 2500 uM GlcN6P [5]: 3.46e-05 ± 1.4e-05 s⁻¹

A39C U45G
kcat [1]: 0.00234 ± 0.00083 s⁻¹
KM [6]: 2340 ± 1100 µM
self-cleavage kobs at 40 uM GlcN6P [2]: 6.34e-05 ± 1.1e-05 s⁻¹
self-cleavage kobs at 160 uM GlcN6P [3]: 0.000127 ± 1.4e-05 s⁻¹
self-cleavage kobs at 640 uM GlcN6P [4]: 0.000759 ± 0.0001 s⁻¹
self-cleavage kobs at 2500 uM GlcN6P [5]: 0.00114 ± 0.00018 s⁻¹
self-cleavage kobs at 10000 uM GlcN6P [7]: 0.00189 ± 0.00029 s⁻¹

A39U G43A
kcat [1]: 0.000177 ± 1.5e-05 s⁻¹
KM [6]: 1170 ± 280 µM
self-cleavage kobs at 640 uM GlcN6P [4]: 5.75e-05 ± 8.5e-06 s⁻¹
self-cleavage kobs at 2500 uM GlcN6P [5]: 0.000139 ± 1.6e-05 s⁻¹
self-cleavage kobs at 10000 uM GlcN6P [7]: 0.000152 ± 1.4e-05 s⁻¹

G37C A64C
kcat [1]: 1.32e-05 ± 3.3e-06 s⁻¹
self-cleavage kobs at 10000 uM GlcN6P [7]: < 1e-05 s⁻¹

G38C C50G
kcat [1]: 1.28e-05 ± 1.9e-06 s⁻¹

G38C C50U
kcat [1]: < 1e-05 s⁻¹
self-cleavage kobs at 160 uM GlcN6P [3]: < 1e-05 s⁻¹
self-cleavage kobs at 640 uM GlcN6P [4]: < 1e-05 s⁻¹
self-cleavage kobs at 10000 uM GlcN6P [7]: < 1e-05 s⁻¹

A39C U47C
kcat [1]: 0.00157 ± 0.00025 s⁻¹
KM [6]: 2020 ± 510 µM
self-cleavage kobs at 40 uM GlcN6P [2]: 4.25e-05 ± 5.6e-06 s⁻¹
self-cleavage kobs at 160 uM GlcN6P [3]: 0.000105 ± 1.6e-05 s⁻¹
self-cleavage kobs at 640 uM GlcN6P [4]: 0.000327 ± 3.9e-05 s⁻¹
self-cleavage kobs at 2500 uM GlcN6P [5]: 0.000934 ± 0.00011 s⁻¹
self-cleavage kobs at 10000 uM GlcN6P [7]: 0.00131 ± 0.00011 s⁻¹

A39G U69G
kcat [1]: 0.000101 ± 1.5e-05 s⁻¹
self-cleavage kobs at 40 uM GlcN6P [2]: 4.07e-05 ± 1.3e-05 s⁻¹
self-cleavage kobs at 160 uM GlcN6P [3]: 0.000114 ± 3.2e-05 s⁻¹
self-cleavage kobs at 640 uM GlcN6P [4]: 7.75e-05 ± 1.3e-05 s⁻¹
self-cleavage kobs at 2500 uM GlcN6P [5]: 0.000143 ± 1.7e-05 s⁻¹
self-cleavage kobs at 10000 uM GlcN6P [7]: 9.32e-05 ± 1e-05 s⁻¹

A39C C58U
kcat [1]: 1.02e-05 ± 1.6e-06 s⁻¹

G38A C50G G63U C71A
kcat [1]: 4.03e-05 ± 1.2e-05 s⁻¹
self-cleavage kobs at 160 uM GlcN6P [3]: 7.25e-05 ± 2.2e-05 s⁻¹
self-cleavage kobs at 640 uM GlcN6P [4]: 4.7e-05 ± 2.1e-05 s⁻¹
self-cleavage kobs at 2500 uM GlcN6P [5]: 3.94e-05 ± 1.3e-05 s⁻¹

G37A U54C
kcat [1]: 0.00259 ± 0.00054 s⁻¹
KM [6]: 3190 ± 910 µM
self-cleavage kobs at 40 uM GlcN6P [2]: 4.82e-05 ± 1.6e-05 s⁻¹
self-cleavage kobs at 160 uM GlcN6P [3]: 0.000124 ± 2.7e-05 s⁻¹
self-cleavage kobs at 640 uM GlcN6P [4]: 0.000375 ± 8.4e-05 s⁻¹
self-cleavage kobs at 2500 uM GlcN6P [5]: 0.00127 ± 0.00026 s⁻¹
self-cleavage kobs at 10000 uM GlcN6P [7]: 0.00192 ± 0.00042 s⁻¹

A36C U55C
kcat [1]: < 1e-05 s⁻¹
self-cleavage kobs at 10000 uM GlcN6P [7]: < 1e-05 s⁻¹

G37A C50A
kcat [1]: 1.38e-05 ± 4.6e-06 s⁻¹

A39C U65G
kcat [1]: 0.00143 ± 8.9e-05 s⁻¹
KM [6]: 3200 ± 380 µM
self-cleavage kobs at 160 uM GlcN6P [3]: 7.31e-05 ± 2e-05 s⁻¹
self-cleavage kobs at 640 uM GlcN6P [4]: 0.000243 ± 3.9e-05 s⁻¹
self-cleavage kobs at 2500 uM GlcN6P [5]: 0.000558 ± 9.7e-05 s⁻¹
self-cleavage kobs at 10000 uM GlcN6P [7]: 0.0011 ± 9.8e-05 s⁻¹

A39C U65C
kcat [1]: 0.000473 ± 8.7e-05 s⁻¹
KM [6]: 2250 ± 770 µM
self-cleavage kobs at 640 uM GlcN6P [4]: 0.000107 ± 2e-05 s⁻¹
self-cleavage kobs at 2500 uM GlcN6P [5]: 0.000311 ± 7.1e-05 s⁻¹
self-cleavage kobs at 10000 uM GlcN6P [7]: 0.000367 ± 6.1e-05 s⁻¹

G37C U54G U55G
kcat [1]: 5.85e-05 ± 2.8e-06 s⁻¹
KM [6]: 2190 ± 470 µM
self-cleavage kobs at 10000 uM GlcN6P [7]: 4.79e-05 ± 1.5e-05 s⁻¹

A36U A64G
kcat [1]: 1.98e-05 ± 2e-06 s⁻¹
self-cleavage kobs at 10000 uM GlcN6P [7]: 1.85e-05 ± 5.8e-06 s⁻¹

G37U U69G
kcat [1]: 4.56e-05 ± 1.6e-05 s⁻¹
self-cleavage kobs at 160 uM GlcN6P [3]: 3.74e-05 ± 8.6e-06 s⁻¹
self-cleavage kobs at 640 uM GlcN6P [4]: 6.88e-05 ± 1.5e-05 s⁻¹

A36U U47G G51U
kcat [1]: < 1e-05 s⁻¹
self-cleavage kobs at 10000 uM GlcN6P [7]: < 1e-05 s⁻¹

G37U A53G
kcat [1]: 1.16e-05 ± 3.4e-06 s⁻¹

G37U U47G
kcat [1]: < 1e-05 s⁻¹
self-cleavage kobs at 40 uM GlcN6P [2]: < 1e-05 s⁻¹
self-cleavage kobs at 640 uM GlcN6P [4]: < 1e-05 s⁻¹

G37U U47A
kcat [1]: < 1e-05 s⁻¹
self-cleavage kobs at 640 uM GlcN6P [4]: < 1e-05 s⁻¹

G37A U55C
kcat [1]: 0.000802 ± 5.9e-05 s⁻¹
KM [6]: 2180 ± 260 µM
self-cleavage kobs at 160 uM GlcN6P [3]: 5.1e-05 ± 1.1e-05 s⁻¹
self-cleavage kobs at 640 uM GlcN6P [4]: 0.000189 ± 2e-05 s⁻¹
self-cleavage kobs at 2500 uM GlcN6P [5]: 0.000404 ± 5.6e-05 s⁻¹
self-cleavage kobs at 10000 uM GlcN6P [7]: 0.000676 ± 8.7e-05 s⁻¹

G37A U55G
kcat [1]: 0.0025 ± 0.0004 s⁻¹
KM [6]: 2980 ± 830 µM
self-cleavage kobs at 40 uM GlcN6P [2]: 2.68e-05 ± 1.3e-05 s⁻¹
self-cleavage kobs at 160 uM GlcN6P [3]: 0.000204 ± 6.7e-05 s⁻¹
self-cleavage kobs at 640 uM GlcN6P [4]: 0.000401 ± 9.1e-05 s⁻¹
self-cleavage kobs at 2500 uM GlcN6P [5]: 0.00122 ± 0.0002 s⁻¹
self-cleavage kobs at 10000 uM GlcN6P [7]: 0.00188 ± 0.00028 s⁻¹

G37A U55A
kcat [1]: 0.00489 ± 0.0022 s⁻¹
self-cleavage kobs at 40 uM GlcN6P [2]: 0.000128 ± 5.4e-05 s⁻¹
self-cleavage kobs at 160 uM GlcN6P [3]: 0.000133 ± 2.8e-05 s⁻¹
self-cleavage kobs at 640 uM GlcN6P [4]: 0.000667 ± 0.00015 s⁻¹
self-cleavage kobs at 2500 uM GlcN6P [5]: 0.00226 ± 0.00037 s⁻¹
self-cleavage kobs at 10000 uM GlcN6P [7]: 0.00286 ± 0.00068 s⁻¹

C34U G51A
kcat [1]: 5.64e-05 ± 4.4e-06 s⁻¹
KM [6]: 2710 ± 750 µM
self-cleavage kobs at 10000 uM GlcN6P [7]: 4.45e-05 ± 8.4e-06 s⁻¹

G35U G43U
kcat [1]: < 1e-05 s⁻¹
self-cleavage kobs at 640 uM GlcN6P [4]: < 1e-05 s⁻¹
self-cleavage kobs at 2500 uM GlcN6P [5]: < 1e-05 s⁻¹

A36C A52U U56G U65A U69A
kcat [1]: 2.16e-05 ± 2.7e-06 s⁻¹

G38U C70A
kcat [1]: 1.31e-05 ± 3.3e-06 s⁻¹

G38U G59C U69G
kcat [1]: 4.16e-05 ± 1.3e-05 s⁻¹

A36C U46C
kcat [1]: < 1e-05 s⁻¹
self-cleavage kobs at 40 uM GlcN6P [2]: < 1e-05 s⁻¹
self-cleavage kobs at 640 uM GlcN6P [4]: < 1e-05 s⁻¹
self-cleavage kobs at 10000 uM GlcN6P [7]: < 1e-05 s⁻¹

A36C
kcat [1]: < 1e-05 s⁻¹
self-cleavage kobs at 160 uM GlcN6P [3]: < 1e-05 s⁻¹

A36G
kcat [1]: 2.12e-05 ± 2.6e-06 s⁻¹
self-cleavage kobs at 2500 uM GlcN6P [5]: 1.72e-05 ± 3e-06 s⁻¹
self-cleavage kobs at 10000 uM GlcN6P [7]: 1.89e-05 ± 1.4e-06 s⁻¹

A39U A52U
kcat [1]: 0.000201 ± 4.1e-05 s⁻¹
KM [6]: 3930 ± 1900 µM
self-cleavage kobs at 2500 uM GlcN6P [5]: 9.27e-05 ± 1.2e-05 s⁻¹
self-cleavage kobs at 10000 uM GlcN6P [7]: 0.000141 ± 1.1e-05 s⁻¹

G40A A53C
kcat [1]: 0.00179 ± 0.0007 s⁻¹
self-cleavage kobs at 160 uM GlcN6P [3]: 0.000183 ± 5.8e-05 s⁻¹
self-cleavage kobs at 640 uM GlcN6P [4]: 0.000386 ± 0.00011 s⁻¹
self-cleavage kobs at 2500 uM GlcN6P [5]: 0.000919 ± 0.0002 s⁻¹
self-cleavage kobs at 10000 uM GlcN6P [7]: 0.00217 ± 0.0008 s⁻¹

A36U A64G C70U
kcat [1]: 6.13e-05 ± 1.3e-05 s⁻¹
self-cleavage kobs at 2500 uM GlcN6P [5]: 7.29e-05 ± 2.6e-05 s⁻¹
self-cleavage kobs at 10000 uM GlcN6P [7]: 5.17e-05 ± 1.8e-05 s⁻¹

A39G U55A
kcat [1]: 0.0158 ± 0.0027 s⁻¹
KM [6]: 399 ± 110 µM
self-cleavage kobs at 40 uM GlcN6P [2]: 0.00131 ± 0.00023 s⁻¹
self-cleavage kobs at 160 uM GlcN6P [3]: 0.00551 ± 0.0011 s⁻¹
self-cleavage kobs at 640 uM GlcN6P [4]: 0.0115 ± 0.0025 s⁻¹
self-cleavage kobs at 2500 uM GlcN6P [5]: 0.0107 ± 0.0029 s⁻¹
self-cleavage kobs at 10000 uM GlcN6P [7]: 0.017 ± 0.0039 s⁻¹
